Measurements taken from publication PMC10615782.

Biological target: Chikungunya virus-like particles (strain 37997) (chikungunya virus) (UniProt Q8JUX5)
Assay: BLI

“Monovalent mouse MXRA8 cleaved from the Fc fusion (from UniProt Q9DBV4 22-336) (domain or fragment)” gave a Kd of 0.068 µM.
